Test results reported in patent US20170240632A1, “COMPOSITIONS AND METHODS FOR IDENTIFYING AND TREATING CACHEXIA OR PRE-CACHEXIA” (THE BROAD INSTITUTE INC., priority 2014, published 2017).
“Also recorded” adds a separate entry of the source.

B1: S100A9: recombinant S100 family protein, RAGE ligand (protein, listed as Homo sapiens)
chain: MTCKMSQLERNIETIINTFHQYSVKLGHPDTLNQGEFKELVRKDLQNFLKKENKNEKVIEHIMEDLDTNADKQLSFEEFIMLMARLTWASHEKMHEGDEGPGHHHKPGLGEGTP
B2: S100A8: recombinant S100 family protein, RAGE ligand (protein, listed as Homo sapiens)
chain: MLTELEKALNSIIDVYHKYSLIKGNFHAVYRDDLKKLLETECPQYIRKKGADVWFKELDINTDGAVNFQEFLILVIKMGVAAHKKSHEESHKE
B3: Calprotectin: homodimers, heterodimers and heterotetramers of S100A8 and S100A9 (protein, UniProt P05109 1-93; P06702 1-114, looked up)
Protein S100-A8: B2 chain
Protein S100-A9: B1 chain
B4: HMGB1: high mobility group box 1, RAGE ligand (protein, UniProt P09429 1-215, looked up)
High mobility group protein B1: MGKGDPKKPRGKMSSYAFFVQTCREEHKKKHPDASVNFSEFSKKCSERWKTMSAKEKGKFEDMAKADKARYEREMKTYIPPKGETKKKFKDPNAPKRPPSAFFLFCSEYRPKIKGEHPGLSIGDVAKKLGEMWNNTAADDKQPYEKKAAKLKEKYEKDIAAYRAKGKPDAAKKGVVKAEKSKKKKEEEEDEEDEEDEEEEEDEEDEDEEEDDDDE
B5: S100A7: recombinant S100 family protein, RAGE ligand (protein, listed as Homo sapiens)
chain: MSNTQAERSIIGMIDMFHKYTRRDDKIEKPSLLTMMKENFPNFLSACDKKGTNYLADVFEKKDKNEDKKIDFSEFLSLLGDIATDYHKQSHGAAPCSGGSQ
B6: S100B: recombinant S100 family protein, RAGE ligand (protein, listed as Homo sapiens)
chain: MSELEKAMVALIDVFHQYSGREGDKHKLKKSELKELINNELSHFLEEIKEQEVVDKVMETLDNDGDGECDFQEFMAFVAMVTTACHEFFEHE

Tested on: Primary human myoblast differentiated into terminal myotubes
Test: Cachexia induction by recombinant S100/HMGB1 proteins, myosin HC in-cell Western
Assay type: cell-based
Details: recombinant ligands in Hanks Balance Salt Solution applied 1:2 v:v to fresh maintenance media each day for 3 days
Description: FIG. 1 is a graph showing the differential cachexia-inducing activity of r-S100 faimily proteins. All rpooteins are tested in HBSS buffer. Myosin HC is measured in an in-cell Western assay.
FIGS. 1-4 illustrate the effect of various proteins of the S100 family, as well as HMGB1, as cachexia inducers when conmpared with cachexia-inducing media. Primary human myoblast were plated and differentiated into terminal myotubes as previously described. Recombinant ligands were prepared at the same dose curve in Hanks Balance Salt Solution (buffer) and applied 1:2 v:v to fresh maintenance media each day for 3 days. Cells were assessed for myosin HC content by in-cell Western staining as previously described.

Molecule | induction of the cachectic phenotype (myosin HC content) | induction of the cachectic phenotype (myosin HC content) (listed as A9) | induction of the cachectic phenotype (myosin HC content) (listed as A8) | induction of the cachectic phenotype (myosin HC content) (listed as S100 A7)
B1 | key effector molecules in inducing precachexia and/or cachexia | inducers of the cachectic phenotype |  | 
B2 | key effector molecules in inducing precachexia and/or cachexia |  | inducers of the cachectic phenotype | 
B3 | key effector molecules in inducing precachexia and/or cachexia |  |  | 
B4 | do not induce precachexia and/or cachexia; also recorded: not cachexogenic in muscle |  |  | 
B5 | key effector molecules in inducing precachexia and/or cachexia |  |  | inducers of the cachectic phenotype
B6 | little or no activity; also recorded: do not induce precachexia and/or cachexia |  |  | 
